Data taken from publication PMC6956557, “Preclinical development of a novel CD47 nanobody with less toxicity and enhanced anti-cancer therapeutic potential” (Journal of Nanobiotechnology, 2020).

Assays:
hCD47 (ECD)-Fc = target: T1, hCD47 (ECD)-Fc (Homo sapiens, UniProt Q08722); assay: ELISA; 5 μg/mL CD47 (ECD)-Fc proteins coated overnight at 4 °C, 1% BSA block, 10 μg/mL Nb for 1 h at room temperature; mouse anti-HA and anti-mouse IgG-alkaline phosphatase, A405; settings: both partners purified
T1 construct: human CD47 ectodomain (ECD), residues 20-136; Cloned into a pFUSE vector; also called human CD47 (ECD)-Fc; recombinant hCD47 antigen

mouse CD47 (ECD)-Fc = target: T2, mouse CD47 (ECD)-Fc (Mus musculus, UniProt Q61735); assay: as above; settings: both partners purified
T2 construct: mouse CD47 ectodomain (ECD); source: HEK-293F, purified

rat CD47 (ECD)-Fc = target: T3, rat CD47 (ECD)-Fc (Rattus norvegicus, UniProt P97829); assay: as above; settings: both partners purified
T3 construct: rat CD47 ectodomain (ECD); source: HEK-293F, purified

[1] = target: T4, human CD47 on the surface of cells (human (endogenous in Raji), UniProt Q08722); assay: flow cytometry on cells; competition: Raji cells co-incubated with HuNb1-biotin or Rituximab-biotin and unlabelled antibody; streptavidin-PE; settings: one partner purified
T4 construct: human CD47 (integrin-associated protein) on the cell surface; also called hCD47; CD47 expressed on Raji cells; source: endogenous, on Raji cells; endogenous, on human RBCs of healthy donors
T4 sequence (Q08722 19-323): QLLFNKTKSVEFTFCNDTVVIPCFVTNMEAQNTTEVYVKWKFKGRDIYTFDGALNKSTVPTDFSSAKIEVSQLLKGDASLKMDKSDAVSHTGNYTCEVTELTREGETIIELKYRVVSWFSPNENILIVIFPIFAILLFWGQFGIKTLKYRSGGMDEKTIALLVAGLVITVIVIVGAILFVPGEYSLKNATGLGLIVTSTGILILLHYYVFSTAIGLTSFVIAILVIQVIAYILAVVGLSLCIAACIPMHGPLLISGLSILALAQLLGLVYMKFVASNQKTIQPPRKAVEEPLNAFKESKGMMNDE

T1 sequence (Q08722 20-136): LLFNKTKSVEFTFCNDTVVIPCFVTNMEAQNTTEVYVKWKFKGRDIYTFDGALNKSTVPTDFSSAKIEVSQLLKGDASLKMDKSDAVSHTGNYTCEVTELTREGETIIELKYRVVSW

B1: HuNb1 (VHH)
VHH: QVQLQESGGGLVQPGGSLRLSCAASGYAYTSDCMGWFRQTPGKGLEGVALIYTPGNSTNYADSVKGRFTISQDNSKSTVYLQMNSLRAEDTAMYYCAARRGACSLRLPFFYWGQGTLVTVSS
notes: as the VHH of m1; The nanobody alone as used in the ELISA, detected by an anti-HA antibody; also called CD47 Nb; source: E. coli WK6 (pMECS), purified (Ni-sepharose)
binding result (hCD47 (ECD)-Fc): binds | binding result (mouse CD47 (ECD)-Fc): no binding (tested: 10 μg/mL) | binding result (rat CD47 (ECD)-Fc): no binding (tested: 10 μg/mL)

B2: HuNb1-biotin (VHH)
VHH: B1 VHH
notes: as the VHH of m1
binding result [1]: binds
